In the Human Domainome abundance scans (Beltran et al. 2025) one finds abundance fitness data, which are given here for 55 substances.

± gives the uncertainty stated by the source.

The nature of one data set: abundance fitness (aPCA) (normalised: wild type 0, dead -1); higher = more abundant; growth selection in yeast, the domain comes from the species named. To be noted: Homo sapiens.
Consider “Transcription factor SOX-4 A121T, Q06945”, for which the abundance fitness was -0.009 ± 0.06.

With “Transcription factor SOX-4 D102T, Q06945”, the abundance fitness was -0.149 ± 0.05. For “Transcription factor SOX-4 D125N, Q06945”, the abundance fitness was -0.045 ± 0.22. Still for that read-out and setting: with Transcription factor SOX-4 E79V, Q06945 the figure was -0.476 ± 0.13; with Transcription factor SOX-4 E88V, Q06945, -0.649 ± 0.066; with Transcription factor SOX-4 I72D, Q06945, -0.595 ± 0.46.

Regarding Transcription factor SOX-4 I77L, Q06945, the abundance fitness is -0.126 ± 0.055. Still for that read-out and setting: with Transcription factor SOX-4 I89L, Q06945 the figure was -0.098 ± 0.036; with “Transcription factor SOX-4 I106R, Q06945”, -0.209 ± 0.042. Same read-out and setting: with Transcription factor SOX-4 K60R, Q06945 the figure was -0.294 ± 0.066; with Transcription factor SOX-4 K95Q, Q06945, 0.115 ± 0.14; with “Transcription factor SOX-4 K101T, Q06945”, -0.029 ± 0.065.

Transcription factor SOX-4 L99A, Q06945 gave an abundance fitness of 0.041 ± 0.062. The same measure, in the same setting: with Transcription factor SOX-4 M78A, Q06945 the figure was -0.006 ± 0.058; with Transcription factor SOX-4 M84L, Q06945, 0.014 ± 0.055. Still for that read-out and setting: with “Transcription factor SOX-4 M120L, Q06945” the figure was -0.047 ± 0.082. On the same count and under the same terms, with Transcription factor SOX-4 R75K, Q06945 the figure was 0.07 ± 0.046. On to Transcription factor SOX-4 R92M, Q06945, for which the abundance fitness came to 0.128 ± 0.11. Same read-out and setting: with Transcription factor SOX-4 R96S, Q06945 the figure was -0.162 ± 0.17; with Transcription factor SOX-4 S70A, Q06945, 0.014 ± 0.057. Same read-out and setting: with Transcription factor SOX-4 S81N, Q06945 the figure was 0.007 ± 0.056; with “Transcription factor SOX-4 S103L, Q06945”, -0.454 ± 0.082; with “Transcription factor SOX-4 Y123H, Q06945”, -0.03 ± 0.12.

Staying with this data set, now noted: Saccharomyces cerevisiae (strain ATCC 204508 / S288c).
For the substance “E3 ubiquitin-protein ligase RSP5 W359C, P39940”, the abundance fitness is -0.336 ± 0.085.

In the case of “E3 ubiquitin-protein ligase RSP5 W359D, P39940”, the abundance fitness is -0.225 ± 0.059.

In the case of “E3 ubiquitin-protein ligase RSP5 W359E, P39940”, the abundance fitness is -0.271 ± 0.071. On the same count and under the same terms, with “E3 ubiquitin-protein ligase RSP5 W359G, P39940” the figure was -0.441 ± 0.045. The same measure, in the same setting: with “E3 ubiquitin-protein ligase RSP5 W359I, P39940” the figure was -0.258 ± 0.1; with “E3 ubiquitin-protein ligase RSP5 W359K, P39940”, -0.446 ± 0.11.

For the substance “E3 ubiquitin-protein ligase RSP5 W359L, P39940”, the abundance fitness was -0.203 ± 0.066.

For “E3 ubiquitin-protein ligase RSP5 W359N, P39940”, the abundance fitness was -0.198 ± 0.091. Still for that read-out and setting: with “E3 ubiquitin-protein ligase RSP5 W359P, P39940” the figure was -0.447 ± 0.059. Same read-out and setting: with “E3 ubiquitin-protein ligase RSP5 W359Q, P39940” the figure was -0.278 ± 0.08; with “E3 ubiquitin-protein ligase RSP5 W359R, P39940”, -0.265 ± 0.067; with “E3 ubiquitin-protein ligase RSP5 W359S, P39940”, -0.249 ± 0.049.

Take “E3 ubiquitin-protein ligase RSP5 W359T, P39940”: the abundance fitness is -0.342 ± 0.055. Same read-out and setting: with “E3 ubiquitin-protein ligase RSP5 W359V, P39940” the figure was -0.416 ± 0.045. Substance “E3 ubiquitin-protein ligase RSP5 W359Y, P39940” yielded an abundance fitness of 0.171 ± 0.08. Take “E3 ubiquitin-protein ligase RSP5 Y348A, P39940”: the abundance fitness was -0.936 ± 0.073. “E3 ubiquitin-protein ligase RSP5 Y348C, P39940”: the abundance fitness is -0.574 ± 0.09. On the same count and under the same terms, with “E3 ubiquitin-protein ligase RSP5 Y348D, P39940” the figure was -0.879 ± 0.091; with “E3 ubiquitin-protein ligase RSP5 Y348E, P39940”, -0.664 ± 0.062; with “E3 ubiquitin-protein ligase RSP5 Y348F, P39940”, -0.146 ± 0.09. The same measure, in the same setting: with “E3 ubiquitin-protein ligase RSP5 Y348G, P39940” the figure was -0.796 ± 0.043; with “E3 ubiquitin-protein ligase RSP5 Y348H, P39940”, -0.699 ± 0.16; with “E3 ubiquitin-protein ligase RSP5 Y348K, P39940”, -0.666 ± 0.072. Same read-out and setting: with “E3 ubiquitin-protein ligase RSP5 Y348L, P39940” the figure was -0.504 ± 0.068. With “E3 ubiquitin-protein ligase RSP5 Y348M, P39940”, the abundance fitness is -0.354 ± 0.092. Same read-out and setting: with “E3 ubiquitin-protein ligase RSP5 Y348P, P39940” the figure was -1.17 ± 0.086; with “E3 ubiquitin-protein ligase RSP5 Y348Q, P39940”, -0.637 ± 0.054. As for “E3 ubiquitin-protein ligase RSP5 Y348R, P39940”, the abundance fitness is -0.919 ± 0.049. On the same count and under the same terms, with “E3 ubiquitin-protein ligase RSP5 Y348S, P39940” the figure was -0.738 ± 0.077. The same measure, in the same setting: with “E3 ubiquitin-protein ligase RSP5 Y348T, P39940” the figure was -0.686 ± 0.087; with “E3 ubiquitin-protein ligase RSP5 Y348V, P39940”, -0.585 ± 0.048; with “E3 ubiquitin-protein ligase RSP5 Y348W, P39940”, -0.147 ± 0.049.
